± gives the half width of the 95% confidence interval.
How the values were obtained:
[1] = folding stability dG unfold from chymotrypsin proteolysis; higher = more stable
Method in brief: (§1)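 Mini-proteins designed to be under 80 residues and free of cysteine were carried in a PA-tagged cDNA display construct and digested with trypsin and with chymotrypsin. Each protease was applied at 11 threefold-diluted concentrations, alongside a no-protease condition, before sequencing. K50 came from Bayesian fitting of the sequencing counts, and unfolding free energy was obtained by comparing it with a sequence-predicted unfolded-state K50 and a shared folded-state K50, for each protease separately or for both together. Designs were retained only if their AlphaFold2 dimer inter-PAE exceeded 15.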

[2] = folding stability dG unfold from trypsin proteolysis; higher = more stable
Method in brief: as §1

[3] = folding stability dG unfold (combined trypsin and chymotrypsin); higher = more stable
Method in brief: as §1

Row | Sequence | folding stability dG unfold [1] [kcal/mol] | folding stability dG unfold [2] [kcal/mol] | folding stability dG unfold [3] [kcal/mol]
1 | SAGGSAIWIPVDEIRDLLKEFGIDVTVERHPNDGWVEIEIKMRRPNGKKHPIKIWVHPDGYIRIEPSAGGSA [r15_1051_TrROS] | 4.42 ± 0.15 | 3.23 ± 0.16 | 4.03 ± 0.18
2 | SAGGSAMIVTEDPNGVLTTTENGKVTTTTVTPVPRPDPFSDKTFTEYVVTTTTTPVAPSPITPNTLSAGGSA [r15_515_JUSTAS] | -0.0422 ± 0.081 | 1.26 ± 0.032 | 0.823 ± 0.046
3 | SAGGSAGGSAKPRVKIVEVDEEKKRVLVKTEDGEVVELEGLTPEQIEELAKALGADEVELVSAGGSAGGSAG [r3_78_TrROS_Hall] | 1.53 ± 0.095 | 0.174 ± 0.07 | 1.12 ± 0.17
4 | SAGGKKKVTIEIRKNPEEPGKYIIRVKVDGKEIEIEVSEEDLEEILAALKKLLPPGAKIEKIEIRELPSAGG [r13_519_TrROS_Hall] | 3.85 ± 0.081 | 2.38 ± 0.098 | 3.45 ± 0.12
5 | SAWKIEIKEVKRNPDGWYEITITIPFPGDPNMPVDELADEILQEFGIKDVTVEPNPDNGWIEITIRIPRSAG [r14_228_TrROS] | 2.53 ± 0.057 | 2.45 ± 0.067 | 2.48 ± 0.19
6 | SAGGSAGGSASSSPVTVETKTLEVEFKDDEIIVKEKVTTKYPNGKTTVTVTTTTIKVDPNLDSAGGSAGGSA [r18_291_JUSTAS] | 1.55 ± 0.1 | 1.21 ± 0.1 | 1.34 ± 0.12
7 | SAGGSAGGSAMKTSSGTVSFPDSTVKLSYENFGDGSVKKSVVEVVSRPPPPPVPPSNPHYLQSAGGSAGGSA [r18_176_JUSTAS] | 0.567 ± 0.22 | 0.667 ± 0.12 | 0.702 ± 0.39
8 | SAGEEPPEVTIKVVEKDGKLVIEVEYNGKTLTITLEDGEKIEIKFPEGMSEEELLEEAKRLAKELAEKSAGG [r19_170_TrROS_Hall] | 1.9 ± 0.25 | 3.05 ± 0.35 | 2.63 ± 0.39
9 | SAGGSAGGMKTFTIDELKKLAEELGAEIYYDKDTNTIYIRTPGKIFRITINDDGTVTIEELPPKSAGGSAGG [r6_155_TrROS_Hall] | 3.99 ± 0.083 | 3.05 ± 0.19 | 3.66 ± 0.25
10 | SAGMETVVTYDPSNGTVTTTTTVFAPDGTPLGSLSTTTPIGGGTITYTTITIDPETGTVTTTTTAYPGASAG [r5_34_JUSTAS] | 4.49 ± 0.086 | 2.77 ± 0.093 | 4.25 ± 0.11
11 | SAGGSAGGDNWYHITIFRMKIKEVEPRKDPDGEKEPQFNFKIKEVVTIPIPPNDPEKLKDALGASAGGSAGG [r6_738_TrROS] | 1.84 ± 0.13 | 0.745 ± 0.079 | 1.37 ± 0.12
12 | MEELEKLPGIKVEPIREEDGRLYLRVTFTDEVAKALGKPPVTVLIEVEPGEELELSPELRELLRKLGIEVVS [r1_256_TrROS_Hall] | 4.34 ± 0.11 | 2.6 ± 0.061 | 3.86 ± 0.12
13 | SAGGSAGGSAGGKIENWKITKVETKLHPNGFPYLVIELSNEKKKIRVLIYPNGELKAFEESAGGSAGGSAGG [r7_675_TrMRF] | 4.07 ± 0.21 | 2.8 ± 0.42 | 3.82 ± 0.31
14 | SAMTLRIELTKEELEKLIKELKPGDEVELEIEVNGRTYRIRAKITRIERVDDKVYIEVELEIEELPEEESAG [r14_335_TrROS_Hall] | 4.75 ± 0.064 | 4.46 ± 0.11 | 4.63 ± 0.13
15 | SAGGSAGGSGSSTEVTTTTLPDTSYTTTNSTTTTFSPDQPEAVEAGLPVPSTVTTTTTTSPAGSAGGSAGGS [r20_138_JUSTAS] | 0.0599 ± 0.1 | 0.918 ± 0.056 | 0.59 ± 0.12
16 | SAGGSDKLYIRNPDHTIEIDEVKEPPDGEKYVRIRHEPPDGKEKEHEFPPDELADKFGLPPDNIEISAGGSA [r2_262_TrROS] | -0.217 ± 0.79 | 0.32 ± 0.35 | -0.101 ± 0.56
17 | SAMYEPAEFSFTLPNGEKIHITAPKNPNTDEPIVSITIYRKLPDGNTVSFTITVKSSDIDEIIEKLGIKSAG [r14_416_TrMRF] | 3.74 ± 0.11 | 3.39 ± 0.095 | 3.67 ± 0.32
18 | SAGGSAGGSGSMKVYTHNVPPGQELTITITRGSSSTTLTFPPNTTVTITVPTSSPATITLTAPSAGGSAGGS [r12_550_JUSTAS] | 1.87 ± 0.054 | 1.39 ± 0.031 | 1.74 ± 0.07
19 | SAGGSAMKVRLEVEEEDGKLRVRLEVEVGPPVVRVEVEAEVEEVDGELVLKVTVKVELSPEALEALSAGGSA [r15_725_TrROS_Hall] | 3.78 ± 0.11 | 3.47 ± 0.22 | 3.78 ± 0.15
20 | RKIEINIWRNENHWYVRIKLEHPDGKEQELMFPMDSWDEAREFIRGILANLPPNNVKIEDIEIYPPNGQPIS [r1_169_TrROS] | 4.329 ± 0.023 | 2.85 ± 0.076 | 3.87 ± 0.069
21 | SAGGSAGGSAGMEPEIYTITTTDSNGNTSSYTFTSTEEVNAFLNDPSFQSSAVSFTVSPTSAGGSAGGSAGG [r11_1047_JUSTAS] | 2.88 ± 0.047 | 2.57 ± 0.053 | 2.76 ± 0.076

Row | Sequence | folding stability dG unfold [1] [kcal/mol] | folding stability dG unfold [2] [kcal/mol] | folding stability dG unfold [3] [kcal/mol]
22 | SAGGSAGGSAWKKFMLEFPDGRPFMIEIDPDEPGRVKIYPPGNGKEEEIPPDDLKDLKITASAGGSAGGSAG [r3_451_TrROS] | 0.718 ± 0.27 | -0.0506 ± 0.36 | 0.507 ± 0.33
23 | SAGGSALPDIEVEELVRRLLELLEEDQPFRIVVFPPGGRWLTLDELLNVPAEEIPDLVVLVFVPDLSAGGSA [r15_144_TrMRF] | 3.49 ± 0.06 | 3.04 ± 0.091 | 3.3 ± 0.088
24 | SAGGSAGGSAGGSFEVVSVDETVTVPPGATVTIVVRDENGKLLTFTFEVRLVPPPPEEESAGGSAGGSAGGS [r10_573_TrROS_Hall] | 1.95 ± 0.072 | 1.58 ± 0.1 | 1.86 ± 0.18
25 | SAPPETVEVEEVAEFELADGSKVTVAKVKLPNGETLVVVTVYNKDGEPVATFVVREGDPDALAEALKALSSA [r9_1069_TrROS_Hall] | 4.56 ± 0.095 | 3.9 ± 0.3 | 4.51 ± 0.13
26 | SAGGSAGGSATIRIPWDKIKDALEEHDMTVTNIEPNPGGNPWVEIEVNGTPEQREKIQEALKSAGGSAGGSA [r18_175_TrROS] | 0.255 ± 0.15 | 0.369 ± 0.045 | 0.313 ± 0.12
27 | SAGGSAMMTLEEAIEKAAKNIPVGEKKIIEIKLEKGTFTVEIEKIGPKEVKIKILKISKGPEEEEISAGGSA [r15_150_TrMRF] | 4.68 ± 0.18 | 3.99 ± 0.23 | 4.61 ± 0.3
28 | SAGGSMKITKIEIEKLPNGEYKITITKDENGNITVTVTNKNGKKKTITLKVKPEDVEEVLKELLKKSAGGSA [r2_298_TrROS_Hall] | 3.01 ± 0.06 | 1.6 ± 0.051 | 2.73 ± 0.1
29 | SAGGSAGGSAGMKIKFPNGKVVEIHMDEDSGNIEIEFPDGKKKEINIPGMSIDDILDYLKSAGGSAGGSAGG [r11_729_TrROS] | 1.46 ± 0.033 | 1.56 ± 0.036 | 1.59 ± 0.045
30 | SAGGMKIEVEVSDSDIESAAERIAKEVYEKIKAEGKNEDVEVTLTLPNGTRYRIVVDGKGNVKEIIESSAGG [r13_965_JUSTAS] | 3.79 ± 0.16 | 3.07 ± 0.17 | 3.74 ± 0.25
31 | SAGGMTLITIEHPDGEVIEFELPGATEEEAEAIAEEIAKRHDPGKVKVTFEKVPEKGVDPTKPVAVKSAGGS [r8_167_JUSTAS] | 1.39 ± 0.038 | -0.128 ± 0.073 | 0.917 ± 0.099
32 | SETYKVTVLAEVRIYSRSPDGTWKPIGVFPVEATVEYPAEYREEAERKAVEKVEEEVRKFAESHGVVVEASA [r9_356_TrMRF] | 2.31 ± 0.13 | 1.57 ± 0.043 | 1.91 ± 0.16
33 | SAGSMEALRALAEELAAEIAAAARAAGREVEVDITEVRPGEVRIRVTTTPPGGERTVEDIEIALPEERLSAG [r5_994_JUSTAS] | 1.82 ± 0.026 | 0.934 ± 0.018 | 1.48 ± 0.034
34 | SAGGSAGGSAGGLPPDVRLRVRITRPDGTVLEFDAPADVEIFFPDVPPEWRIEVDAEDVSAGGSAGGSAGGS [r10_774_TrMRF] | 2.49 ± 0.057 | 0.732 ± 0.061 | 2.09 ± 0.16
35 | SMEIKIEITYDKDTNYLVIKVTIKLKTKTVDKKTKKVTEKEEEITLTLVIKLKPLKPGQKLKLEIKLFPESA [r9_1058_TrROS_Hall] | 4.93 ± 0.33 | 3.24 ± 0.22 | 4.4 ± 0.44
36 | SAGGSAGGSAGGKIIHPDLKKPLDVLEKFELIIGGKPYLFFLSRGEGELRLLVIPAGKESAGGSAGGSAGGS [r10_517_TrMRF] | 2.53 ± 0.055 | 1.54 ± 0.021 | 2.15 ± 0.048
37 | SALWVIKDTIKPPNGKKRKISIAIPNDGLYVWFNGGSFPIPLKEIKKIMENFPGYQIDDIEIMPLDELKSAG [r14_336_TrROS] | -0.15 ± 0.53 | 0.798 ± 0.19 | 0.448 ± 0.32
38 | SAGGSAPNKWKTVDIEFMFPPDNLEEFVDEISKLPGIKASIEPVEYDPEGMYWMKIDITIPPGMKISAGGSA [r15_441_TrROS] | 1.74 ± 0.12 | 1.16 ± 0.048 | 1.64 ± 0.21
39 | SAGGSAGGGPPNAPLKIYTDDGSVNLLNLDGQPLLVTVHPDATAEITLPDGTKITVPIPPGANLSAGGSAGG [r6_105_TrMRF] | 0.628 ± 0.054 | 1.26 ± 0.072 | 0.977 ± 0.069
40 | SAGGSAPLPAREFADEIMKKSPGPVEITVVFKEPDEYYVAKITMNPNNGKPQIKVERIPPEDLKKLSAGGSA [r15_156_TrROS] | 0.626 ± 0.23 | 0.42 ± 0.065 | 0.467 ± 0.23
41 | SAGGSAGGSPKVTTSTSSSVLGNGRLESTVSNPDLGVTTLTLTDPESDVVTTFTETAGSTTPAASAGGSAGG [r6_757_JUSTAS] | 0.815 ± 0.037 | 0.132 ± 0.025 | 0.606 ± 0.031
42 | SMKPGDTVIVKIEIEKKVDGKTVKKTIEKEIKIKPGETVEIELKGLPKGAKVRVEIFNADGKLIEEKELPSA [r9_478_TrROS_Hall] | 1.46 ± 0.042 | 2.23 ± 0.075 | 1.8 ± 0.08

Source: the supplement of paper PMC12764529
